Reference: paper PMC12851022, “Targeting the Spliceosomal Protein USP39 Through Allosteric Ligands and PROTAC‐Induced Degradation” (Angewandte Chemie (International Ed. in English), 2025)

Assays:
VHL_WT-EGFP = VHL_WT-EGFP (UniProt P40337)
VHL_m (Δ91–121) = VHL_m (Δ91–121) (UniProt P40337)
Sequence of VHL_m (Δ91–121) (P40337 other isoform, or with tags, fused parts or gaps mutant): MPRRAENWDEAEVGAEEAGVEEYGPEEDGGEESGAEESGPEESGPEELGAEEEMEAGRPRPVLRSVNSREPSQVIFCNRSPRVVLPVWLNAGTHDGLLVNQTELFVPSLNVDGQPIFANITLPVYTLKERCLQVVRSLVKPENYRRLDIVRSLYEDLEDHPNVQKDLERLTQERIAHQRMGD

Sequence of VHL_WT-EGFP (P40337 whole entry): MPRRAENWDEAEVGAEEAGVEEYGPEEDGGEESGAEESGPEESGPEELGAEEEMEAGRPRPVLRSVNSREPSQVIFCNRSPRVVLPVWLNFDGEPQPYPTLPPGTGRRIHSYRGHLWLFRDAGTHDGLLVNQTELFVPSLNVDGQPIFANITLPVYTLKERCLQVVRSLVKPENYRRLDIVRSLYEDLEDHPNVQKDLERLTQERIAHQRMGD

DC50 of USP39 PROTAC V1-induced degradation of USP39-OFP, fluorescence assay in HEK293T cells co-expressing USP39 OFP and VHL WT-EGFP (VHL_WT-EGFP): 1 nM
fold reduction of USP39 PROTAC V1-induced degradation of USP39-OFP against cells with VHL WT-EGFP, fluorescence assay in HEK293T cells expressing VHL m (VHL_m (Δ91–121)): > 80 fold
B1: USP39-OFP (natural protein)
chain: MSGRSKRESRGSTRGKRESESRGSSGRVKRERDREREPEAASSRGSPVRVKREFEPASAREAPASVVPFVRVKREREVDEDSEPEREVRAKNGRVDSEDRRSRHCPYLDTINRSVLDFDFEKLCSISLSHINAYACLVCGKYFQGRGLKSHAYIHSVQFSHHVFLNLHTLKFYCLPDNYEIIDSSLEDITYVLKPTFTKQQIANLDKQAKLSRAYDGTTYLPGIVGLNNIKANDYANAVLQALSNVPPLRNYFLEEDNYKNIKRPPGDIMFLLVQRFGELMRKLWNPRNFKAHVSPHEMLQAVVLCSKKTFQITKQGDGVDFLSWFLNALHSALGGTKKKKKTIVTDVFQGSMRIFTKKLPHPDLPAEEKEQLLHNDEYQETMVESTFMYLTLDLPTAPLYKDEKEQLIIPQVPLFNILAKFNGITEKEYKTYKENFLKRFQLTKLPPYLIFCIKRFTKNNFFVEKNPTIVNFPITNVDLREYLSEEVQAVHKNTTYDLIANIVHDGKPSEGSYRIHVLHHGTGKWYELQDLQVTDILPQMITLSEAYIQIWKRRDNDETNQQGA
